Test results: paper PMC4738263 (Scientific Reports, 2016)

B1: His-tag-attached wild-type Hydrogenobacter thermophilus cytochrome c552, holo protein [modified: heme c attached (holo protein); heme c attached (holo protein)] [Hydrogenobacter thermophilus] / itself (parent)
chain: NEQLAKQKGCMACHDLKAKKVGPAYADVAKKYAGRKDAVDYLAGKIKKGGSGVWGSVPMPPQNVTDAEAKQLAQWILSIK

Variants of: B1
Assay: Ni affinity chromatography (peak areas)
Details: with itself, protein obtained from E. coli cells, read off a plot

screen value (parent: 27)	screen value (parent: 68)	screen value	Variant
19%	75%	5.5%	chain 1 I76V
11%	76%	13%	chain 1 Y32F Y41E

Continued, variant first:

Variant	screen value (parent: 27)	screen value (parent: 68)	screen value
chain 1 A5F M11V	14%	83%	3%
chain 1 A5F M11V Y32F Y41E I76V	1.8%	92%	6.2%
